This note sets out measurements from patent US20100076177A1 (published 2010).

In test [1] the target is T1, hDC-SIGN (human, UniProt Q9NNX6 60-404).
T1 chain: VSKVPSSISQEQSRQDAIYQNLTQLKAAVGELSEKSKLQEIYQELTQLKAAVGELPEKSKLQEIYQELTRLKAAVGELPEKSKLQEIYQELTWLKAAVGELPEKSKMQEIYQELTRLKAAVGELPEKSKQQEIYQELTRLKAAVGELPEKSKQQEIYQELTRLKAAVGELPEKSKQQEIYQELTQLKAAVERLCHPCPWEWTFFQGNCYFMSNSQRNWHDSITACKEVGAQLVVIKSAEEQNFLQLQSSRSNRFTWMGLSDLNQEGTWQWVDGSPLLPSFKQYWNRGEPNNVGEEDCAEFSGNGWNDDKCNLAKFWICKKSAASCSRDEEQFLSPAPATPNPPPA
The test is described as follows: BIAcore 3000.

Test [2] deals with mannan-binding lectin (MBL) (human, UniProt P11226 21-248). Kind of test: BIAcore 3000. (In general: Surface plasmon resonance follows binding to a sensor surface in real time, without labels.)
mannan-binding lectin (MBL), sequence (P11226 21-248): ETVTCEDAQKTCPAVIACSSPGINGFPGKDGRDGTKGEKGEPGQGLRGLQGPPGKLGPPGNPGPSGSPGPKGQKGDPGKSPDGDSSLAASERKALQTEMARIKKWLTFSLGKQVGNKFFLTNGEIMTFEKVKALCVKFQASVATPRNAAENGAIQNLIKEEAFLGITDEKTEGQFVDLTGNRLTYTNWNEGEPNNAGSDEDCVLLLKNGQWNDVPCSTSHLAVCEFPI

B1: AZN-D1, murine monoclonal antibody directed to h-DC-SIGN (the "initial antibody" of Example 2) (antibody, V domains shown)
VH: QVQLQQSGPQSVRPGASVKISCKASGYSFTSYWMGWVKQRPGQGLEWIGMIDPFDSESRLNQEFKDKATLTVDKSSSTVYMQLSSPTSEDSAIYYCVRRNGGYYVFDSWGQGTTLTVSS
VL: DVLMTQSPLSLPVSLGDKASISCRSSQNIVHSNGDTYLEWYLQRPGQSPKLLIFKVSNRFSGVPDRFSGSGSGTDFILKISRVEAEDLGVYYCFQGSHVPWTFGGGTKLEIK
As to B1, in test [1], the dissociation constant (Kd) was determined as 3.88 nM.

B2: murine monoclonal antibody directed to human mannose binding lectin (the "initial antibody" of Example 1) (antibody, V domains shown)
VH: VQLQESGPGLVKPSQSLSLTCTVTGYSITSDYAWNWIRQFPGNKLEWMGYISYSGSTSYNPSLKSRVSITRDTSKNQFFLQLNSVTTEDTATYYCARWESWFAYWGQGTLVTVSA
VL: DIVLTQSPATLSVTPGDSVSLSCRASQSISNDLHWYQQKSHESPRLLIKYASQSISGIPSRFSGSGSGTDFTLSINSVETEDFGMYFCQQSNSWPYTFGGGTKLEIK
B2: in test [2], the dissociation constant Kd is 1.24 nM.

The term Kd denotes a measure of binding affinity in units of concentration.
